Source: patent publication US20180187179

T1: β-casein, P02666
T1 chain: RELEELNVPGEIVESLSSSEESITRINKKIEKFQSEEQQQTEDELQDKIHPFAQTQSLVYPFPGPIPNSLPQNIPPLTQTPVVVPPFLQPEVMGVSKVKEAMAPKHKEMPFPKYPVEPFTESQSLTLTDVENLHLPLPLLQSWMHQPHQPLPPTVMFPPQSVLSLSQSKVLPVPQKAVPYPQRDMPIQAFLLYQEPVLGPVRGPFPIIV

B1: camel chymosin variant 293 (Y190A+N100Q+N291Q) (protein)
chain: GKVAREPLTSYLDSQYFGKIYIGTPPQEFTVVFDTGSSDLWVPSIYCKSNVCKNHHRFDPRKSSTFRNLGKPLSIHYGTGSMEGFLGYDTVTVSNIVDPQQTVGLSTEQPGEVFTYSEFDGILGLAYPSLASEYSVPVFDNMMDRHLVARDLFSVYMDRNGQGSMLTLGAIDPSYYTGSLHWVPVTLQQAWQFTVDSVTINGVAVACVGGCQAILDTGTSVLFGPSSDILKIQMAIGATENRYGEFDVNCGNLRSMPTVVFEINGRDYPLSPSAYTSKDQGFCTSGFQGDQNSELWILGDVFIREYYSVFDRANNRVGLAKAI
B2: camel chymosin variant 299 (L222I+N100Q+N291Q) (protein)
chain: GKVAREPLTSYLDSQYFGKIYIGTPPQEFTVVFDTGSSDLWVPSIYCKSNVCKNHHRFDPRKSSTFRNLGKPLSIHYGTGSMEGFLGYDTVTVSNIVDPQQTVGLSTEQPGEVFTYSEFDGILGLAYPSLASEYSVPVFDNMMDRHLVARDLFSVYMDRNGQGSMLTLGAIDPSYYTGSLHWVPVTLQQYWQFTVDSVTINGVAVACVGGCQAILDTGTSVIFGPSSDILKIQMAIGATENRYGEFDVNCGNLRSMPTVVFEINGRDYPLSPSAYTSKDQGFCTSGFQGDQNSELWILGDVFIREYYSVFDRANNRVGLAKAI
B3: camel chymosin variant 304 (S132A+N100Q+N291Q) (protein)
chain: GKVAREPLTSYLDSQYFGKIYIGTPPQEFTVVFDTGSSDLWVPSIYCKSNVCKNHHRFDPRKSSTFRNLGKPLSIHYGTGSMEGFLGYDTVTVSNIVDPQQTVGLSTEQPGEVFTYSEFDGILGLAYPSLAAEYSVPVFDNMMDRHLVARDLFSVYMDRNGQGSMLTLGAIDPSYYTGSLHWVPVTLQQYWQFTVDSVTINGVAVACVGGCQAILDTGTSVLFGPSSDILKIQMAIGATENRYGEFDVNCGNLRSMPTVVFEINGRDYPLSPSAYTSKDQGFCTSGFQGDQNSELWILGDVFIREYYSVFDRANNRVGLAKAI
B4: camel chymosin variant 275 (R242Q+N100Q+N291Q) (protein)
chain: GKVAREPLTSYLDSQYFGKIYIGTPPQEFTVVFDTGSSDLWVPSIYCKSNVCKNHHRFDPRKSSTFRNLGKPLSIHYGTGSMEGFLGYDTVTVSNIVDPQQTVGLSTEQPGEVFTYSEFDGILGLAYPSLASEYSVPVFDNMMDRHLVARDLFSVYMDRNGQGSMLTLGAIDPSYYTGSLHWVPVTLQQYWQFTVDSVTINGVAVACVGGCQAILDTGTSVLFGPSSDILKIQMAIGATENQYGEFDVNCGNLRSMPTVVFEINGRDYPLSPSAYTSKDQGFCTSGFQGDQNSELWILGDVFIREYYSVFDRANNRVGLAKAI
B5: camel chymosin variant 306 (G251D+N100Q+N291Q) (protein)
chain: GKVAREPLTSYLDSQYFGKIYIGTPPQEFTVVFDTGSSDLWVPSIYCKSNVCKNHHRFDPRKSSTFRNLGKPLSIHYGTGSMEGFLGYDTVTVSNIVDPQQTVGLSTEQPGEVFTYSEFDGILGLAYPSLASEYSVPVFDNMMDRHLVARDLFSVYMDRNGQGSMLTLGAIDPSYYTGSLHWVPVTLQQYWQFTVDSVTINGVAVACVGGCQAILDTGTSVLFGPSSDILKIQMAIGATENRYGEFDVNCDNLRSMPTVVFEINGRDYPLSPSAYTSKDQGFCTSGFQGDQNSELWILGDVFIREYYSVFDRANNRVGLAKAI
B6: camel chymosin variant 295 (H76Q+N100Q+N291Q) (protein)
chain: GKVAREPLTSYLDSQYFGKIYIGTPPQEFTVVFDTGSSDLWVPSIYCKSNVCKNHHRFDPRKSSTFRNLGKPLSIQYGTGSMEGFLGYDTVTVSNIVDPQQTVGLSTEQPGEVFTYSEFDGILGLAYPSLASEYSVPVFDNMMDRHLVARDLFSVYMDRNGQGSMLTLGAIDPSYYTGSLHWVPVTLQQYWQFTVDSVTINGVAVACVGGCQAILDTGTSVLFGPSSDILKIQMAIGATENRYGEFDVNCGNLRSMPTVVFEINGRDYPLSPSAYTSKDQGFCTSGFQGDQNSELWILGDVFIREYYSVFDRANNRVGLAKAI
B7: camel chymosin variant 303 (L130I+N100Q+N291Q) (protein)
chain: GKVAREPLTSYLDSQYFGKIYIGTPPQEFTVVFDTGSSDLWVPSIYCKSNVCKNHHRFDPRKSSTFRNLGKPLSIHYGTGSMEGFLGYDTVTVSNIVDPQQTVGLSTEQPGEVFTYSEFDGILGLAYPSIASEYSVPVFDNMMDRHLVARDLFSVYMDRNGQGSMLTLGAIDPSYYTGSLHWVPVTLQQYWQFTVDSVTINGVAVACVGGCQAILDTGTSVLFGPSSDILKIQMAIGATENRYGEFDVNCGNLRSMPTVVFEINGRDYPLSPSAYTSKDQGFCTSGFQGDQNSELWILGDVFIREYYSVFDRANNRVGLAKAI
B8: camel chymosin variant 307 (Y243E+N100Q+N291Q) (protein)
chain: GKVAREPLTSYLDSQYFGKIYIGTPPQEFTVVFDTGSSDLWVPSIYCKSNVCKNHHRFDPRKSSTFRNLGKPLSIHYGTGSMEGFLGYDTVTVSNIVDPQQTVGLSTEQPGEVFTYSEFDGILGLAYPSLASEYSVPVFDNMMDRHLVARDLFSVYMDRNGQGSMLTLGAIDPSYYTGSLHWVPVTLQQYWQFTVDSVTINGVAVACVGGCQAILDTGTSVLFGPSSDILKIQMAIGATENREGEFDVNCGNLRSMPTVVFEINGRDYPLSPSAYTSKDQGFCTSGFQGDQNSELWILGDVFIREYYSVFDRANNRVGLAKAI
B9: camel chymosin variant 272 (D290E+N100Q+N291Q) (protein)
chain: GKVAREPLTSYLDSQYFGKIYIGTPPQEFTVVFDTGSSDLWVPSIYCKSNVCKNHHRFDPRKSSTFRNLGKPLSIHYGTGSMEGFLGYDTVTVSNIVDPQQTVGLSTEQPGEVFTYSEFDGILGLAYPSLASEYSVPVFDNMMDRHLVARDLFSVYMDRNGQGSMLTLGAIDPSYYTGSLHWVPVTLQQYWQFTVDSVTINGVAVACVGGCQAILDTGTSVLFGPSSDILKIQMAIGATENRYGEFDVNCGNLRSMPTVVFEINGRDYPLSPSAYTSKDQGFCTSGFQGEQNSELWILGDVFIREYYSVFDRANNRVGLAKAI
B10: camel chymosin variant 308 (S273D+N100Q+N291Q) (protein)
chain: GKVAREPLTSYLDSQYFGKIYIGTPPQEFTVVFDTGSSDLWVPSIYCKSNVCKNHHRFDPRKSSTFRNLGKPLSIHYGTGSMEGFLGYDTVTVSNIVDPQQTVGLSTEQPGEVFTYSEFDGILGLAYPSLASEYSVPVFDNMMDRHLVARDLFSVYMDRNGQGSMLTLGAIDPSYYTGSLHWVPVTLQQYWQFTVDSVTINGVAVACVGGCQAILDTGTSVLFGPSSDILKIQMAIGATENRYGEFDVNCGNLRSMPTVVFEINGRDYPLSPDAYTSKDQGFCTSGFQGDQNSELWILGDVFIREYYSVFDRANNRVGLAKAI
B11: camel chymosin variant 270 (V32L+N100Q+N291Q) (protein)
chain: GKVAREPLTSYLDSQYFGKIYIGTPPQEFTVLFDTGSSDLWVPSIYCKSNVCKNHHRFDPRKSSTFRNLGKPLSIHYGTGSMEGFLGYDTVTVSNIVDPQQTVGLSTEQPGEVFTYSEFDGILGLAYPSLASEYSVPVFDNMMDRHLVARDLFSVYMDRNGQGSMLTLGAIDPSYYTGSLHWVPVTLQQYWQFTVDSVTINGVAVACVGGCQAILDTGTSVLFGPSSDILKIQMAIGATENRYGEFDVNCGNLRSMPTVVFEINGRDYPLSPSAYTSKDQGFCTSGFQGDQNSELWILGDVFIREYYSVFDRANNRVGLAKAI
B12: camel chymosin variant 305 (S226T+N100Q+N291Q) (protein)
chain: GKVAREPLTSYLDSQYFGKIYIGTPPQEFTVVFDTGSSDLWVPSIYCKSNVCKNHHRFDPRKSSTFRNLGKPLSIHYGTGSMEGFLGYDTVTVSNIVDPQQTVGLSTEQPGEVFTYSEFDGILGLAYPSLASEYSVPVFDNMMDRHLVARDLFSVYMDRNGQGSMLTLGAIDPSYYTGSLHWVPVTLQQYWQFTVDSVTINGVAVACVGGCQAILDTGTSVLFGPTSDILKIQMAIGATENRYGEFDVNCGNLRSMPTVVFEINGRDYPLSPSAYTSKDQGFCTSGFQGDQNSELWILGDVFIREYYSVFDRANNRVGLAKAI
B13: camel chymosin variant 276 (G289S+N100Q+N291Q) (protein)
chain: GKVAREPLTSYLDSQYFGKIYIGTPPQEFTVVFDTGSSDLWVPSIYCKSNVCKNHHRFDPRKSSTFRNLGKPLSIHYGTGSMEGFLGYDTVTVSNIVDPQQTVGLSTEQPGEVFTYSEFDGILGLAYPSLASEYSVPVFDNMMDRHLVARDLFSVYMDRNGQGSMLTLGAIDPSYYTGSLHWVPVTLQQYWQFTVDSVTINGVAVACVGGCQAILDTGTSVLFGPSSDILKIQMAIGATENRYGEFDVNCGNLRSMPTVVFEINGRDYPLSPSAYTSKDQGFCTSGFQSDQNSELWILGDVFIREYYSVFDRANNRVGLAKAI
B14: camel chymosin variant 296 (S273Y+N100Q+N291Q) (protein)
chain: GKVAREPLTSYLDSQYFGKIYIGTPPQEFTVVFDTGSSDLWVPSIYCKSNVCKNHHRFDPRKSSTFRNLGKPLSIHYGTGSMEGFLGYDTVTVSNIVDPQQTVGLSTEQPGEVFTYSEFDGILGLAYPSLASEYSVPVFDNMMDRHLVARDLFSVYMDRNGQGSMLTLGAIDPSYYTGSLHWVPVTLQQYWQFTVDSVTINGVAVACVGGCQAILDTGTSVLFGPSSDILKIQMAIGATENRYGEFDVNCGNLRSMPTVVFEINGRDYPLSPYAYTSKDQGFCTSGFQGDQNSELWILGDVFIREYYSVFDRANNRVGLAKAI
B15: camel chymosin variant 282 (Q280E+N100Q+N291Q) (protein)
chain: GKVAREPLTSYLDSQYFGKIYIGTPPQEFTVVFDTGSSDLWVPSIYCKSNVCKNHHRFDPRKSSTFRNLGKPLSIHYGTGSMEGFLGYDTVTVSNIVDPQQTVGLSTEQPGEVFTYSEFDGILGLAYPSLASEYSVPVFDNMMDRHLVARDLFSVYMDRNGQGSMLTLGAIDPSYYTGSLHWVPVTLQQYWQFTVDSVTINGVAVACVGGCQAILDTGTSVLFGPSSDILKIQMAIGATENRYGEFDVNCGNLRSMPTVVFEINGRDYPLSPSAYTSKDEGFCTSGFQGDQNSELWILGDVFIREYYSVFDRANNRVGLAKAI
B16: camel chymosin variant 280 (D290L+N100Q+N291Q) (protein)
chain: GKVAREPLTSYLDSQYFGKIYIGTPPQEFTVVFDTGSSDLWVPSIYCKSNVCKNHHRFDPRKSSTFRNLGKPLSIHYGTGSMEGFLGYDTVTVSNIVDPQQTVGLSTEQPGEVFTYSEFDGILGLAYPSLASEYSVPVFDNMMDRHLVARDLFSVYMDRNGQGSMLTLGAIDPSYYTGSLHWVPVTLQQYWQFTVDSVTINGVAVACVGGCQAILDTGTSVLFGPSSDILKIQMAIGATENRYGEFDVNCGNLRSMPTVVFEINGRDYPLSPSAYTSKDQGFCTSGFQGLQNSELWILGDVFIREYYSVFDRANNRVGLAKAI

Target: T1, β-casein, P02666
Conditions: scale: % cleavage of non-glycosylated camel chymosin

Point of comparison: B13, β(193-209): cleavage of β-casein at position 192/193 51. Against it:
- B1 — lower, 28
- B2 — higher, 54
- B3 — lower, 28
- B4 — higher, 74
- B5 — higher, 88
- B6 — lower, 48
- B7 — lower, 29
- B8 — higher, 62
- B9 — higher, 60
- B10 — higher, 66
- B11 — lower, 28
- B12 — lower, 44
- B14 — higher, 58
- B15 — higher, 85
- B16 — higher, 58
